How the values were obtained:
SbMATE [1] = target: T1, SbMATE (Sorghum bicolor, UniProt A7XZS5); experiment: surface plasmon resonance, immobilized detergent-purified protein; type: binding; set-up: full-length; N-terminal FLAG and C-terminal His10 (or 3C-cleavable C-terminal His8) in Pichia pastoris KM71H, bDDM-purified for SPR; Xenopus oocytes from cRNA for citrate efflux; conditions: 50 mM HEPES pH 8.0, 150 mM NaCl, 0.03% bDDM
T1 sequence (A7XZS5 1-600): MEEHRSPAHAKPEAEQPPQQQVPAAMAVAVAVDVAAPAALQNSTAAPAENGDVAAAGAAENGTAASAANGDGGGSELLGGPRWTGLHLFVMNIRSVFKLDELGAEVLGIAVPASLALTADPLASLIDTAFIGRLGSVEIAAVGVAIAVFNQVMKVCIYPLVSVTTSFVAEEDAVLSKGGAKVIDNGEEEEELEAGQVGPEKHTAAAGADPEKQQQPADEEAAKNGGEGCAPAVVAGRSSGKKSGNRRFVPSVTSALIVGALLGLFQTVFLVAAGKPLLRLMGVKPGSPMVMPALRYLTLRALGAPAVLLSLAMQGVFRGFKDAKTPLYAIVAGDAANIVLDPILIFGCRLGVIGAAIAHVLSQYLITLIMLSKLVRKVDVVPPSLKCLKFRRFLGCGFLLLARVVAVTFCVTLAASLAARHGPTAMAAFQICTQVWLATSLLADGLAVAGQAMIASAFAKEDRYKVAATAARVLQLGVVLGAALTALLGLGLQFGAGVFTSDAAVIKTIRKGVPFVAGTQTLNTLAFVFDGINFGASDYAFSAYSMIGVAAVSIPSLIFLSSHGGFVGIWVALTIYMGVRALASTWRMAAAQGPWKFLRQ

SbMATE [2] = target: T1, SbMATE; experiment: ethidium uptake into Pichia pastoris cells, flow cytometry of DNA-bound ethidium; type: cell-based; set-up: full-length; N-terminal FLAG and C-terminal His10 (or 3C-cleavable C-terminal His8) in Pichia pastoris KM71H; conditions: pH 8.5, 25 mM Tris-Cl, 137 mM NaCl, 2.7 mM KCl, outward proton gradient, 20 min, room temperature; read-out: half-maximal transport rate
[3] = target: T2, SbMATE (Sorghum bicolor MATE transporter), detergent-purified (Sorghum bicolor, bDDM detergent-solubilised from Pichia pastoris; N-terminal FLAG and C-terminal His10 tags left out; covalently immobilised by EDC-NHS chemistry for SPR); experiment: SPR; as the other SPR (SbMATE covalently immobilised on CMD chip; 50 mM HEPES pH 8.0, 150 mM NaCl, 0.03% bDDM; Nbs injected at various concentrations) but a BSA-immobilised surface was the reference channel instead of a blank surface; n = 3; conditions: both partners purified
T2 chain: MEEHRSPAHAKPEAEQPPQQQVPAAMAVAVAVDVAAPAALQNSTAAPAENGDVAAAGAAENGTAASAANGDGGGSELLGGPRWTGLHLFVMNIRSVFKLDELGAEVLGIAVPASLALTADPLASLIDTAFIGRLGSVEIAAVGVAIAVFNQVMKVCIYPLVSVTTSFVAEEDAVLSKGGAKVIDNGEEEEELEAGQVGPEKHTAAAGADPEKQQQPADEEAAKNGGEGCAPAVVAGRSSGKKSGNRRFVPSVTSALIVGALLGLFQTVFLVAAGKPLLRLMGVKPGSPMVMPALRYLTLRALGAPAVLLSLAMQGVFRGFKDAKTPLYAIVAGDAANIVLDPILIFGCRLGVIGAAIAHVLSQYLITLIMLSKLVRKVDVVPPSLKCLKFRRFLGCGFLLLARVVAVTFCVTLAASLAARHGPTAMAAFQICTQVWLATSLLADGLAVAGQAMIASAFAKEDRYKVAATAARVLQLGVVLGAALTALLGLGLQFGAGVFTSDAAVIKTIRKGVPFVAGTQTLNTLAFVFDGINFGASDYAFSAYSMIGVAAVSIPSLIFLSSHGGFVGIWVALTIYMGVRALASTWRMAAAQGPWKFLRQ

[4] = target: T2, SbMATE (Sorghum bicolor MATE …); experiment: SPR; BiOptix 404Pi, CMD sensorchip; detergent-purified SbMATE covalently immobilised (EDC-NHS, 5,000 RU); purified Nbs injected at various concentrations; running buffer 50 mM HEPES pH 8.0, 150 mM NaCl, 0.03% bDDM; double-referenced against a blank surface and buffer injections; regeneration 50 mM glycine pH 2.1; conditions: both partners purified

Molecule	Kd [4] [µM]	further results
ethidium bromide	–	Kd (SbMATE [1]): 47.1 ± 15.6 µM; Km (SbMATE [2]): 130 ± 17.8 µM
Nb 94 (VHH, Selected by mRNA/cDNA display from a naive camelid single-domain library (Creative Biolabs); also called nanobody 94; source: E. coli BL21 (DE3) Star, purified (Ni-NTA, SEC)) VHH: EVQLVESGGGLVQPGGSLRLSCAASGFTFSTYSMSWVRLAPGKALEWVSVINSGGDATYYADSVKGRFTISRDNAKNMLYLQMNSLKPVDTAMYYCVTGLYMSTGPVVAVPFGYWGQGTQVTVSS	–	Kd [3]: 0.0995 µM
Nb 81 (VHH, Selected by mRNA/cDNA display from a naive camelid single-domain library (Creative Biolabs); also called nanobody 81; source: E. coli, purified (Ni-NTA, SEC)) VHH: HVQLVESGGGSVQAGGSLRLSCAASGYSYCSYDMSWYRQAPGKEREFVATIDSYGDTSYADSVKGRFTISQDNAKNTLYLQMNSLKPEDTAMYYCATTPYGGWRYFGYWGQGTQVTVSS	23.9	–
Nb 93 (VHH, Selected by mRNA/cDNA display from a naive camelid single-domain library (Creative Biolabs); also called nanobody 93; source: E. coli, purified (Ni-NTA, SEC)) VHH: HVQLVESGGGLVQAGGFLRLSCTASGFTFDNLALAWFRQAPGKEREGVSCISWSGTRTYYADSVQGRFAISRDNAKNTLYLQMASLKPEDTAMYYCAAESSWVKTCPGDTTDWGSTYWGQGTQVTVSS	26.1	–
Nb 83 (VHH, Selected by mRNA/cDNA display from a naive camelid single-domain library (Creative Biolabs); also called nanobody 83; source: E. coli BL21 (DE3) Star, purified (Ni-NTA, SEC)) VHH: EVQLVESGGGSVQAGGSLRLSCAVSGYTYCSYDMSWYRQAPGKEREFVSGIDSDGSTSYADSVKGRFTISQDNAKNTLYLQMNSLKPEDTAMYYCAVDSVWRLCSLDPADFGYWGQGTQVTVSS	3.3	–
Nb 80 (VHH, Selected by mRNA/cDNA display from a naive camelid single-domain library (Creative Biolabs); also called nanobody 80; source: E. coli, purified (Ni-NTA, SEC)) VHH: QVQLVESGGGSVQAGGSLRLSCTYSVYTYSSDSMAWFRQAPGKEREGVAGIYIGSGSTLYADSAKGRLTISQDKAKNTVYLQMNSLKPEDTALYYCAAGGNWYDGVLNVERAFAYWGQGTQVTVSS	12.2	–
Nb 86 (VHH, Selected by mRNA/cDNA display from a naive camelid single-domain library (Creative Biolabs); also called nanobody 86; source: E. coli Shuffle T7, purified (Ni-NTA, SEC)) VHH: HVQLVESGGGSVQAGGSLRLTCAASGFTFSNYYMSWVRQAPGKGLEWVSSIYSVGSNGYYADSVKGRSTISRDNAKNTLYLQMNSLKPEDTAVYYCAAEPGGSWWDAYSYWGQGTQVTVSS	–	Kd [3]: 0.174 µM
